# Results taken from US20150225704A1 (UNIVERSITY OF BRITISH COLUMBIA, published 2015).
# Numbering of substitutions follows the chain as printed.
# B1: endogenous JNK1 of rat cortical neuronal cultures (enzyme, UniProt P49185 1-411, looked up)
# chain: MSRSKRDNNFYSVEIADSTFTVLKRYQNLKPIGSGAQGIVCAAYDAILERNVAIKKLSRPFQNQTHAKRAYRELVLMKCVNHKNIIGLLNVFTPQKSLEEFQDVYIVMELMDANLCQVIQMELDHERMSYLLYQMLCGIKHLHSAGIIHRDLKPSNIVVKSDCTLKILDFGLARTAGTSFMMTPYVVTRYYRAPEVILGMGYKENVDLWSVGCIMGEMVCLKILFPGRDYIDQWNKVIEQLGTPCPEFMKKLQPTVRTYVENRPKYAGYSFEKLFPDVLFPADSEHNKLKASQARDLLSKMLVIDASKRISVDEALQHPYINVWYDPSEAEAPPPKIPDKQLDEREHTIEEWKELIYKEVMDLEERTKNGVIRGQPSPLGAAVINGSQHPVSSPSVNDMSSMSTDPTLASD
# B2: endogenous JNK3 of rat cortical neuronal cultures and rat brain (enzyme, UniProt P49187 1-464, looked up)
# chain: MSLHFLYYCSEPTLDVKIAFCQGFDKHVDVSSVVKHYNMSKSKVDNQFYSVEVGDSTFTVLKRYQNLKPIGSGAQGIVCAAYDAVLDRNVAIKKLSRPFQNQTHAKRAYRELVLMKCVNHKNIISLLNVFTPQKTLEEFQDVYLVMELMDANLCQVIQMELDHERMSYLLYQMLCGIKHLHSAGIIHRDLKPSNIVVKSDCTLKILDFGLARTAGTSFMMTPYVVTRYYRAPEVILGMGYKENVDIWSVGCIMGEMVRHKILFPGRDYIDQWNKVIEQLGTPCPEFMKKLQPTVRNYVENRPKYAGLTFPKLFPDSLFPADSEHNKLKASQARDLLSKMLVIDPAKRISVDDALQHPYINVWYDPAEVEAPPPQIYDKQLDEREHTIEEWKELIYKEVMNSEEKTKNGVVKGQPSPSGAAVNSSESLPPSSSVNDISSMSTDQTLASDTDSSLEASAGPLGCCR
# B3: GFP-JNK3 (c-jun N-terminal kinase 3) expressed in HEK293 cells (enzyme, UniProt P53779 1-464, looked up)
# chain: B2 chain with H27Q, S32Y, V33I, V34A
# notes: not shown: GFP tag and linker of the gifted construct (Song et al. 2006)
# B4: FLAG-MKK6 (enzyme, UniProt P52564 1-334, looked up)
# chain: MSQSKGKKRNPGLKIPKEAFEQPQTSSTPPRDLDSKACISIGNQNFEVKADDLEPIMELGRGAYGVVEKMRHVPSGQIMAVKRIRATVNSQEQKRLLMDLDISMRTVDCPFTVTFYGALFREGDVWICMELMDTSLDKFYKQVIDKGQTIPEDILGKIAVSIVKALEHLHSKLSVIHRDVKPSNVLINALGQVKMCDFGISGYLVDSVAKTIDAGCKPYMAPERINPELNQKGYSVKSDIWSLGITMIELAILRFPYDSWGTPFQQLKQVVEEPSPQLPADKFSAEFVDFTSQCLKKNSKERPTYPELMQHPFFTLHESKGTDVASFVKLILGD
# notes: Bought from Addgene; not shown: FLAG tag
# B5: zD20 (palmitoyl acyl transferase) expressed in HEK293 cells (enzyme, UniProt Q5W0Z9 1-365, looked up)
# chain: MAPWTLWRCCQRVVGWVPVLFITFVVVWSYYAYVVELCVFTIFGNEENGKTVVYLVAFHLFFVMFVWSYWMTIFTSPASPSKEFYLSNSEKERYEKEFSQERQQEILRRAARALPIYTTSASKTIRYCEKCQLIKPDRAHHCSACDSCILKMDHHCPWVNNCVGFSNYKFFLLFLLYSLLYCLFVAATVLEYFIKFWTNELTDTRAKFHVLFLFFVSAMFFISVLSLFSYHCWLVGKNRTTIESFRAPTFSYGPDGNGFSLGCSKNWRQVFGDEKKYWLLPIFSSLGDGCSFPTRLVGMDPEQASVTNQNEYARSSGSNQPFPIKPLSESKNRLLDSESQWLENGAEEGIVKSGTNNHVTVAIEN
# notes: Immunoprecipitated like myc-zD17
# B6: zD15 (palmitoyl acyl transferase) expressed in HEK293 cells (enzyme, UniProt Q96MV8 1-337, looked up)
# chain: MRRGWKMALSGGLRCCRRVLSWVPVLVIVLVVLWSYYAYVFELCLVTVLSPAEKVIYLILYHAIFVFFTWTYWKSIFTLPQQPNQKFHLSYTDKERYENEERPEVQKQMLVDMAKKLPVYTRTGSGAVRFCDRCHLIKPDRCHHCSVCAMCVLKMDHHCPWVNNCIGFSNYKFFLQFLAYSVLYCLYIATTVFSYFIKYWRGELPSVRSKFHVLFLLFVACMFFVSLVILFGYHCWLVSRNKTTLEAFCTPVFTSGPEKNGFNLGFIKNIQQVFGDKKKFWLIPIGSSPGDGHSFPMRSMNESQNPLLANEETWEDNEDDNQDYPEGSSSLAVETET
# notes: as for B5
# What was measured:
# [1] = biological target: T1, endogenous zD17 of rat cortical neuronal cultures and rat brain (rat, UniProt E9PTT0 1-622); assay: co-immunoprecipitation, neuronal cultures treated with glutamate
# T1 construct: Co-immunoprecipitated from lysates of Wistar rat cortical cultures or Sprague-Dawley rat brain
# T1 sequence (E9PTT0 whole entry): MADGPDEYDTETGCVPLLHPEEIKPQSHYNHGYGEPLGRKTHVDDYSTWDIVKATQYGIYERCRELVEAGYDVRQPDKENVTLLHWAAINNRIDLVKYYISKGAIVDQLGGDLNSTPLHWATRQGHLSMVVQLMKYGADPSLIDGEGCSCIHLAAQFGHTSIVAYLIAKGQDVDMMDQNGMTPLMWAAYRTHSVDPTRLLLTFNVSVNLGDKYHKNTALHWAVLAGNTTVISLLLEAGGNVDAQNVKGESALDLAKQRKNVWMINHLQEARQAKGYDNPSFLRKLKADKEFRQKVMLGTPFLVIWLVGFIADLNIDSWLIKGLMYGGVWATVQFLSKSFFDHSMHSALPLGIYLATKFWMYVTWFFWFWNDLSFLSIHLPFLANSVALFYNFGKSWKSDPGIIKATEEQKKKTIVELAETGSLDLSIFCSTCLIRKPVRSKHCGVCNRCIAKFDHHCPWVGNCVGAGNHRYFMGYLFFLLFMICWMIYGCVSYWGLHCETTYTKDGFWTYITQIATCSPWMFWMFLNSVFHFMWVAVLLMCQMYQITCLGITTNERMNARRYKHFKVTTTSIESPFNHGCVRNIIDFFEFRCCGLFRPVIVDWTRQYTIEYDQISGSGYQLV
# [2] = biological target: T1, endogenous zD17 of rat cortical …; assay: co-immunoprecipitation, neuronal cultures treated with NMDA
# [3] = biological target: T1, endogenous zD17 of rat cortical …; assay: co-immunoprecipitation, neuronal cultures treated with TNF-α (50 ng/ml, 6 h)
# Procedure: (§1) For co-immunoprecipitation, cultured cells were washed with ice-cold PBS followed by incubation with 0.5 ml Gentle Lysis Buffer (GLB) containing 25 mM Tris-HCl (pH 7.4), 2 mM EDTA, 1 mM EGTA, 10 mM NaCl, 0.5% Triton X-100 and 10% Glycerol supplemented with the Complete Protease Inhibitor Tablets (Roche Applied Science™, Indianapolis, Ind., USA) and 1 mM PMSF. Total protein concentration was determined with the BioRad™ Protein Assay kit. Lysates were first precleaned by incubating with Protein A-Sepharose beads (Roche Applied Science™) for 1 h at 4° C., followed by incubation with indicated antibodies (>16 h at 4° C.) and protein A Sepharose bead (2 h at 4° C.). Lysates of rat brain tissues were precleaned with IgG and protein A-beads. […] The relative intensities of the bands on immunoblots were analyzed and quantified using Image J™ (NIH).
# [4] = biological target: T1, endogenous zD17 of rat cortical …; assay: co-immunoprecipitation, neuronal cultures treated with IL-1β (10 ng/ml, 16 h)
# Procedure: as §1
# [5] = biological target: T2, FLAG-MKK7 wt (UniProt O14733 1-419, limits assumed); assay: co-immunoprecipitation, with against without zD17
# T2 construct: Bought from Addgene; also called MKK7 wildtype; not shown: FLAG tag
# T2 sequence (looked up): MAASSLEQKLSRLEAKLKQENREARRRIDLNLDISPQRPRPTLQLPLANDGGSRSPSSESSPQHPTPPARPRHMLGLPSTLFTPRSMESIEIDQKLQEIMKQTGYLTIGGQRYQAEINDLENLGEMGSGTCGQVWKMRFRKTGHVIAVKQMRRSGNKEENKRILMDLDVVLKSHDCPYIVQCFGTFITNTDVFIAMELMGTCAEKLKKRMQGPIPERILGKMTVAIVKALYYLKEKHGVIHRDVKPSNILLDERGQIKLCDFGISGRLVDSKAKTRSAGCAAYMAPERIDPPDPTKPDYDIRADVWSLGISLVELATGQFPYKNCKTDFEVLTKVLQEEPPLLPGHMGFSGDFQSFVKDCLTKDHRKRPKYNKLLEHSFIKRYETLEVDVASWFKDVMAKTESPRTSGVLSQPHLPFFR
# [6] = biological target: T3, myc-tagged full-length palmitoyl acyl transferase zinc-finger DHHC type containing 17 (zD17) (UniProt Q8IUH5 1-632); assay: co-immunoprecipitation, HEK293 cells
# T3 construct: range 1-632; Expressed in HEK293 cells (myc-zD17) or purified from E. coli as GST-myc-zD17 and freed of GST with thrombin; also called myc-zD17; zD17 wildtype
# T3 sequence (Q8IUH5 whole entry): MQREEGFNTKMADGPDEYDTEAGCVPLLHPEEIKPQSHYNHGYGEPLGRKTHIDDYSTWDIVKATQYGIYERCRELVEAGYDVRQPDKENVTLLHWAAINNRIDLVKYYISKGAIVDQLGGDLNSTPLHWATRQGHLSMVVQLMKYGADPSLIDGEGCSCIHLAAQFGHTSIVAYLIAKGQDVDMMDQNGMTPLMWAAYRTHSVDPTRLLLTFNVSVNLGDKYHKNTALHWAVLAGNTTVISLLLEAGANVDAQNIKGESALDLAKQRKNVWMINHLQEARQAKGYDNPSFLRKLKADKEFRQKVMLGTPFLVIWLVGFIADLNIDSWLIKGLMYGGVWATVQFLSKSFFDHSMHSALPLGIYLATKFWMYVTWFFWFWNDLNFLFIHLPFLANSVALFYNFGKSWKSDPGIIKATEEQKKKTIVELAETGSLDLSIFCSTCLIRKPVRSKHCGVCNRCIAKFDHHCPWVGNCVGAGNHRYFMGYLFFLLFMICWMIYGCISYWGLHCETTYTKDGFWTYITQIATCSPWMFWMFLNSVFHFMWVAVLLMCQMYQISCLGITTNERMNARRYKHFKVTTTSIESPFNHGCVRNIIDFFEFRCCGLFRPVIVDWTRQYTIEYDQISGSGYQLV
# Procedure: as §1
# [7] = biological target: B3; assay: co-immunoprecipitation, HEK293 cells
# Procedure: as §1
binder,measurement,setting,value
B1,fold increase of zD17 interaction compared with control,[1],1.4 fold
B2,fold increase of zD17 interaction compared with control,[2],2.5 fold
same,fold increase of zD17 interaction compared with control,[1],2.6 fold
same,fold increase of zD17-JNK3 interaction against control,[3],1.53 fold
same,fold increase of zD17-JNK3 interaction against control,[4],1.88 fold
B3,fold enhancement of the JNK3-MKK7 association in the presence of zD17,[5],2.41 fold
B4,binding result,[6],no binding
B5,binding result,[7],no binding
B6,binding result,[7],no binding
